From patent US20070203188, “Low molecular weight Myc-Max inhibitors” (University of Pittsburgh, published 2007)

Target: c-Myc353-439 (bHLH-LZ)/Max(S) heterodimer (Homo sapiens, UniProt P01106;P61244-2 P01106:368-454,P61244-2:1-151)
Assay: EMSA; 60 nM each protein, 10 nM DNA; 1xPBS pH 7.3, 1 mM EDTA, 0.1% NP40, 5% glycerol, 1 mM DTT, 0.4 mg/mL BSA, 25 C; binding inhibited dose-dependently by 10058-F4 and analogs
Settings: tags: c-Myc: His6 cleaved by TEV, GGCD C-terminal extension, label: 5'-HEX on one strand
Description: Electrophoretic mobility shift Assays (EMSAs). Experiments were performed on 8% polyacrylamide:bis-acrylamide (80:1) gels in 0.5×TBE. Binding reactions were prepared in a buffer consisting of 1×PBS (pH 7.3); 1 mM EDTA; 0.1% NP40; 5% glycerol; 1 mM dithiothreitol; and 0.4 mg/mL BSA. A 22 base-pair E-box-containing double-stranded DNA oligonucleotide labeled on one strand with hexachlorofluoresceine (HEX) consisted of the following sequence:
The second method used to gauge the effects of 10058-F4 and its analogs on c-Myc-Max complexes relied on the use of a simple, three component electrophoretic mobility shift assay (EMSA). For this purpose, a recombinant c-Myc peptide, which encompasses the bHLH-LZ domain (c-_{Myc353-439}), together with the full-length His₆-tagged 151 amino acid isoform of Max [designated Max(S)] (Zhang H, et al. J Biol Chem 1997; 272; 17416-24 and Prochownik E V, et al. Proc Natl Acad Sci USA 1993; 90:960-4) were incubated in increasing concentrations of each relevant compound. The ability of the resultant heterodimer to bind a double-stranded target oligonucleotide containing a consensus E-box motif was then assessed by PAGE. […]

Sequence of c-Myc353-439 (bHLH-LZ)/Max(S) heterodimer (P01106 368-454, chain 1 of 2): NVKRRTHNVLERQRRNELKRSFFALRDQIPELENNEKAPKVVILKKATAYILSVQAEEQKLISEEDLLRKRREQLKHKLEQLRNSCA
Sequence of c-Myc353-439 (bHLH-LZ)/Max(S) heterodimer (P61244 other isoform, or with tags, fused parts or gaps, chain 2 of 2): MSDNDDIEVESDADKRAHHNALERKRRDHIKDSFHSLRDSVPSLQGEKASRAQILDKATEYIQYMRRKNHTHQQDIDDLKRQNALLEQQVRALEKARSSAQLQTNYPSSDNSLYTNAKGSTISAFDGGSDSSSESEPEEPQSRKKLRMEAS

B1: E-box 22-mer duplex (dsDNA)
DNA 1: CACCCGGTCACGTGGCCTACAC
DNA 2: GTGTAGGCCACGTGACCGGGTG
- binding result: binds
